Legend:
CD2 [1] = biological target: T1, CD2 (human, UniProt P06729)
CD2 [2] = biological target: T1, CD2; remark: listed apart in the source
Target sequence in this assay (P06729 25-351): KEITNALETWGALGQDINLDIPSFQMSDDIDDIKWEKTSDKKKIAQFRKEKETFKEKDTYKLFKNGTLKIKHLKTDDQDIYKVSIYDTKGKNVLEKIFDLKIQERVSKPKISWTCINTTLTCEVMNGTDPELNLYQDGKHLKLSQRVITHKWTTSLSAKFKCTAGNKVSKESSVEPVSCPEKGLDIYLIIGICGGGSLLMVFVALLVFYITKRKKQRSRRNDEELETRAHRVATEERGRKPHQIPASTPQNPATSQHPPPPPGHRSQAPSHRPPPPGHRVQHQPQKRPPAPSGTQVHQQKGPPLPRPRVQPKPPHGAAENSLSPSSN

CD2 [3] = biological target: T1, CD2; assay: Jurkat cell binding assay, microscopy
Method: M57/CHO cells, P24/CHO cells and CHO cells (1 ×10^5) were added to separate wells of a 6-well plate (Corning) and washed twice with RPMI Complete Medium. Jurkat cells (CD2^+), obtained as a gift from Dr. Timothy Springer (Dana Farber Cancer Inst., Boston, Mass.) were washed three times with a solution of RPMI, 10% FCS, 4 mM L-glutamine, and then 5 ×10^6 cells were added to each well and incubated for 4 hours at 0° C. Cells were then washed gently three times with RPMI and examined under the microscope at 40X and 100X magnification for cell-cell binding.
The M100/CHO, M101/CHO and M102/CHO transfectants were subjected to a Jurkat cell binding assay, as described in Example 4 above.

Molecule: LFA3TIP (Fc fusion)
- inhibition of PHA dependent PBL proliferation, optimal PHA (CD2 [1]): 41%
- inhibition of PHA dependent PBL proliferation, suboptimal PHA (0.1 µg/ml) (CD2 [2]): 70%

Molecule: anti-CD2 monoclonal antibody TS2/18
- inhibition of PHA dependent PBL proliferation, optimal PHA (CD2 [1]): 20%

B1: M101 deletion mutant of LFA-3 (ligand)
chain: FSQQIYGVVYGNVTFHVPSNVPLKEVLWKKQKDKVAELENSEFRAFSSFKNRVYLDTVSGSLTIYNLTSSWDCPMEQCKRNSTSIYFKMENDLPQKIQCTLSNPLFNTTSSIILTTCIPSSGHSRHRYALIPIPLAVITTCIVLYMNGILKCDRKPDRTNSN
- binding result (CD2 [3]): binds

B2: M102 deletion mutant of LFA-3 (ligand)
chain: FSQQIYGVVYGNVTFHVPSNVPLKEVLWKKQKDKVAELENSEFRAFSSFKNRVYLDTVSGSLTIYNLTSSDEDEYEMESPNITDTMKFFLYVLESLPSPTLTCALTNGSIEVQCMIPEHYNSHRGLIMYSSGHSRHRYALIPIPLAVITTCIVLYMNGILKCDRKPDRTNSN
- binding result (CD2 [3]): binds

B3: M57 deletion mutant of LFA-3 (ligand)
chain: FSQQIYGVVYGNVTFHVPSNVPLKEVLWKKQKDKVAELENSEFRAFSSFKSLTIYNLTSSDEDEYEMESPNITDTMKFFLYVLESLPSPTLTCALTNGSIEVQCMIPEHYNSHRGLIMYSWDCPMEQCKRNSTSIYFKMENDLPQKIQCTLSNPLFNTTSSIILTTCIPSSGHSRHRYALIPIPLAVITTCIVLYMNGILKCDRKPDRTNSN
- binding result (CD2 [3]): no binding

B4: M100 deletion mutant of LFA-3 (ligand)
chain: FSQQIYGVVYDEDEYEMESPNITDTMKFFLYVLESLPSPTLTCALTNGSIEVQCMIPEHYNSHRGLIMYSWDCPMEQCKRNSTSIYFKMENDLPQKIQCTLSNPLFNTTSSIILTTCIPSSGHSRHRYALIPIPLAVITTCIVLYMNGILKCDRKPDRTNSN
- binding result (CD2 [3]): no binding

— US5728677, “Methods of inhibiting T-cell dependent proliferation of peripheral blood lymphocytes using the CD2-binding domain of lymphocyte function associated antigen 3” (Biogen, Inc., dated 1998)
